Source: the supplement of paper PMC10126150
± gives the standard deviation of the averaged measurements.

Tested on: ATP
Assay: switch fluorescence ratio, 500 uM ATP over buffer (Cy3 cluster intensity, sum of 5 cycles each) (fold (ratio)); higher = stronger signal-on switching upon ATP binding; sequences stand for … in TCGTCGGCAGCGTCAGATGTGTATAAGAGACAGTTTTTTTTTTTTTTTTTTTTTTTTT…TC
Settings: aptamer strand: ATP DNA aptamer (quencher-CACCTGGGGGAGTATTGCGGAGGAAGG + anchor), 100 nM annealed; ATP concentration: 500 uM
How it was run: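 Clusters with intensities outside 100-1000 RFU were excluded. The remaining Cy3-labelled switching-strand clusters on a modified Illumina MiSeq flow-cell had been annealed to 100 nM quencher-labelled ATP aptamer and imaged in selection buffer, then after 15 min with 500 uM ATP at 22 °C, for five cycles separated by NaOH stripping and re-annealing. The fluorescence ratio, averaged per switch-domain sequence, is each cluster's summed target-cycle Cy3 intensity over its summed buffer-cycle Cy3 intensity.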
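Note: ATP exposure 15 min at 22 °C before imaging.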

| Sequence | switch fluorescence ratio |
| --- | --- |
| TTTTCTACAG | 1 ± 0.022 |
| TATCATGGGG | 0.996 ± 0.031 |
| TGTTATTGGC | 1.08 ± 0.084 |
| AAGGGGACCC | 1.04 ± 0.043 |
| TAAGTCGGGA | 0.952 ± 0.025 |
| GGGGTTCTAG | 0.999 ± 0.0042 |
| TTTTTCTTCT | 1.31 ± 0.36 |
| AGGTCGTGGG | 0.996 ± 0.016 |
| CCGGAACGGT | 0.986 ± 0.031 |
| GACTTATTTA | 1.01 ± 0.043 |
| TGGCCGTCAT | 0.98 ± 0.032 |
| GGGTGGGCGG | 0.974 ± 0.022 |
| TATTTGTGCT | 0.982 ± 0.011 |
| CTTGAATACT | 1.05 ± 0.03 |
| CGGAGGAGC | 1.02 ± 0.016 |
| GACAGGGTTG | 1.001 ± 0.0062 |
| AGGGGGTGTG | 0.989 ± 0.043 |
| TGAAATTGGA | 0.999 ± 0.015 |
| AAGAGTGTGG | 1.02 ± 0.058 |
| AGCTAGGGTC | 1.05 ± 0.049 |
| ATCCATACAA | 1.03 ± 0.035 |
| TCCCTTTCGA | 1.21 ± 0.063 |
| TGTAAATGGG | 0.984 ± 0.024 |

| Sequence | switch fluorescence ratio |
| --- | --- |
| TAAATCGTAG | 0.991 ± 0.0099 |
| TGCAGCTGTA | 1.04 ± 0.014 |
| TAAAAAGGTG | 1.12 ± 0.11 |
| AAAGGGTTTC | 1 ± 0.038 |
| TTATGGGGGT | 1.01 ± 0.03 |
| TTGCGTAAGG | 1.06 ± 0.056 |
| TTGGGGGATT | 1 ± 0.022 |
| TTTATTCGGC | 1.02 ± 0.065 |
| GTCGAATGGG | 1 ± 0.02 |
| TGTTGACAGT | 1.01 ± 0.021 |
| TTTTGAAATG | 0.965 ± 0.017 |
| TCAGAATTCA | 1.01 ± 0.012 |
| GCTTAAAAAT | 0.986 ± 0.095 |
| TCGATAGGGA | 1.01 ± 0.03 |
| GGTTAACTGT | 1.01 ± 0.026 |
| CGATGGTCGT | 0.975 ± 0.028 |
| GACTGTTAAG | 1.02 ± 0.017 |
| GGGTCAAAGA | 0.9705 ± 0.0086 |
| GAAGTTGCCC | 0.994 ± 0.028 |
| AAGACGATGT | 0.995 ± 0.013 |
| GGTACGAAGT | 1.01 ± 0.027 |
| TGCTAGGGAT | 1.01 ± 0.029 |
| CGGGGGAAAA | 1.03 ± 0.054 |

| Sequence | switch fluorescence ratio |
| --- | --- |
| ACACGGGTGC | 1.74 ± 0.062 |
| TTTTTGTGGA | 1.03 ± 0.019 |
| CAATTCGTCT | 0.994 ± 0.075 |
| TCAGTTAATT | 1.008 ± 0.0099 |
| TATGTCTCTT | 1.02 ± 0.021 |
| TTCAAAAAAA | 0.97 ± 0.026 |
| GCGGGGTTGC | 1.03 ± 0.033 |
| CACCAGTGCT | 1.621 ± 0.0094 |
| ATAGCTGGAA | 0.9678 ± 0.0011 |
| ACTGGGGGTG | 1.07 ± 0.086 |
| CTGCGTCGTT | 0.9967 ± 0.004 |
| GCGTGGGCGA | 1.03 ± 0.045 |
| GTTTAGATG | 0.989 ± 0.022 |
| AGCCATGTGA | 1.01 ± 0.011 |
| TGCCAGGATT | 1.25 ± 0.42 |
| GGCGAAAGGA | 1 ± 0.041 |
| CATTGACCGC | 1.09 ± 0.014 |
| TAAAAGGGTC | 0.942 ± 0.085 |
| CAGGTAAGGC | 1.04 ± 0.033 |
| TTCTAGTTGA | 0.991 ± 0.022 |
| TGTTGAGTAT | 0.9738 ± 0.0072 |
| AAAGTCTAC | 1 ± 0.017 |
| AATCTTGTGT | 0.985 ± 0.027 |

| Sequence | switch fluorescence ratio |
| --- | --- |
| AGTCCGTCGT | 1.026 ± 0.0068 |
| CGAGGGAGGG | 0.999 ± 0.015 |
| ATGAGTGCTC | 0.98 ± 0.0086 |
| TGAAAAGTCG | 0.99334 ± 0.00072 |
| TAGGGGAATT | 0.967 ± 0.039 |
| GTAGCTGGTG | 1.02 ± 0.018 |
| GCGATTTAGA | 0.994 ± 0.016 |
| TATTAAGTAT | 1.01 ± 0.019 |
| CTTCTAGGGG | 1.05 ± 0.011 |
| TTTAACCTGC | 1.06 ± 0.011 |
| TAAAAAAGCC | 1.03 ± 0.091 |
| CAGTGGAGCG | 0.964 ± 0.058 |
| CGGACTCAAA | 1.12 ± 0.025 |
| TTGGAACGAT | 1.02 ± 0.07 |
| TCGCGTTTTT | 0.994 ± 0.031 |
| AAGGGACAGT | 1.03 ± 0.016 |
| TTTAGTGTGC | 1.01 ± 0.03 |
| ACTTATCGGG | 1 ± 0.029 |
| ATGGGTGAGT | 1.002 ± 0.0086 |
| TATGTACGGG | 1.0612 ± 0.00037 |
| GTTTTTCGGG | 0.981 ± 0.034 |
| TTAAGCTCGG | 0.989 ± 0.037 |
| TTTAGGTGTG | 1.02 ± 0.039 |

| Sequence | switch fluorescence ratio |
| --- | --- |
| ATAAGGGTTC | 1.03 ± 0.043 |
| TAAGAGTATC | 1.01 ± 0.019 |
| GGCTAATTTT | 1.02 ± 0.011 |
| TCGTTTAACA | 0.9602 ± 0.0092 |
| GTGGAAAGTA | 0.997 ± 0.011 |
| GGGCATAAAG | 1.02 ± 0.025 |
| TTTGGCAGGT | 1.03 ± 0.026 |
| TAATGGAGTT | 1 ± 0.029 |
| CTGGTCGCGT | 0.9873 ± 0.0081 |
| TCGTAAGTAA | 1.04 ± 0.0094 |
| TCCAACGTAT | 1.493 ± 0.0064 |
| CCAAGCCTGT | 1.007 ± 0.0098 |
| TTGAGGAATA | 0.9922 ± 0.008 |
| TATGAAACCG | 1.02 ± 0.086 |
| TGAGTTTTAC | 1.04 ± 0.03 |
| TGACCATTGC | 1.093 ± 0.0059 |
| ACTTTGAATG | 1.02 ± 0.027 |
| GAAAACGGGG | 1.01 ± 0.02 |
| ATCGTTCGTG | 0.99714 ± 0.00096 |
| TGCGATACGG | 2.71 ± 0.12 |
| AAACTCGGAC | 1.143 ± 0.0053 |
| AAGGTGTTGG | 1.04 ± 0.021 |
| GAACCAGTAC | 1.82 ± 0.032 |

| Sequence | switch fluorescence ratio |
| --- | --- |
| GTTAGGGGGG | 0.979 ± 0.036 |
| TTTCTAGAGA | 1 ± 0.021 |
| CCAGCTTTTA | 1.09 ± 0.052 |
| GAAGCAGGGG | 2.26 ± 0.74 |
| TTGAAGTGTG | 1.02 ± 0.015 |
| TTTATGAAAG | 0.97 ± 0.05 |
| CGTAGACGAG | 1.03 ± 0.016 |
| AATTTACACT | 1.06 ± 0.014 |
| TCTTAAAAT | 1.006 ± 0.0097 |
| GAGGAAATCA | 0.9877 ± 0.008 |
| CCTGGGTCGA | 1.022 ± 0.0044 |
| TATTGGGCCT | 1 ± 0.051 |
| AGGGGGGCGT | 1.01 ± 0.016 |
| ATAACACTTC | 1.03 ± 0.015 |
| CATTAGGATA | 1.0153 ± 0.00044 |
| CCGTTTCGGT | 0.976 ± 0.014 |
| GGAGATTGTG | 0.9766 ± 0.0043 |
| ATGTTTATCG | 0.97 ± 0.016 |
| AACTTGGGTG | 1.02 ± 0.035 |
| TCCAATCGGT | 0.973 ± 0.019 |
| ACAGCGCCGG | 1.018 ± 0.002 |
| GGTCGCGTAG | 1.01 ± 0.03 |
| CGAATTTGTC | 1.02 ± 0.035 |

| Sequence | switch fluorescence ratio |
| --- | --- |
| TTTAGGAGGT | 1.04 ± 0.049 |
| AAAGACCGTG | 1.02 ± 0.033 |
| ATCTATGGTG | 1.02 ± 0.02 |
| GGGTAAAAAA | 1.02 ± 0.045 |
| AGTATGTCGA | 1.01 ± 0.015 |
| ACACATCCGG | 1.06 ± 0.015 |
| TAACGTGGTG | 1.05 ± 0.019 |
| CATTCGGGTG | 1.11 ± 0.027 |
| ATAAGTATGA | 1.01 ± 0.034 |
| CAAATTGGAA | 0.961 ± 0.043 |
| TTGGGTCTCC | 1.03 ± 0.027 |
| TTTTTGTGTG | 0.993 ± 0.023 |
| AATTTGTCCA | 0.98 ± 0.015 |
| TTTCTGGTAA | 1.08 ± 0.034 |
| GTATTAAACC | 1.06 ± 0.023 |
| GCTGGTTGTT | 1.03 ± 0.041 |
| GCTGATATAA | 1.01 ± 0.019 |
| AAGACTGTTT | 0.954 ± 0.026 |
| CATTGAGCGG | 1 ± 0.018 |
